# Laboratory results published in patent publication US20240398911A1.
# pKd: −log10 of the molar value.
# Tests used:
# [1] = target: SARS-CoV2 RBD-8h (Gamma) (SARS-CoV-2 (Gamma)) (UniProt P0DTC2); test: BLI, IgG protein immobilized, monomeric RBD-8h analyte
# [2] = target: SARS-CoV2 RBD-8h (Delta) (SARS-CoV-2 (Delta)) (UniProt P0DTC2); test: as above
substance,measurement,setting,value
VIR-7831 (sotrovimab) (antibody),kon,[1],97000 M⁻¹ s⁻¹
same,pKd,[2],> 10.00
same,koff,[2],< 1e-07 s⁻¹
same,kon,[2],100000 M⁻¹ s⁻¹
